In experiment [1] the target is JF646-labeled Mcm2-7 (MCM) hexamer on DNA after incubation with ORC, Cdc6 and ATP (S. cerevisiae) (UniProt P29469). As to the kind of experiment: single-molecule fluorescence colocalisation on optically trapped DNA (confocal microscopy, bleaching-step counting); bulk incubation of 5 nM ORC, 10 nM Cdc6, 100 nM MCM-Cdt1 with 1 nM 21.2 kbp DNA in 5 mM ATP for 30 min at 30°C, then high-salt wash (500 mM NaCl) in the flow cell before imaging; MCM hexamer with MCM hexamer (double hexamer) on DNA.

For experiment [2] the target is unchanged. Nature of the experiment: single-molecule fluorescence colocalisation on optically trapped DNA (confocal microscopy, bleaching-step counting); bulk incubation of 5 nM ORC, 10 nM Cdc6, 100 nM MCM-Cdt1 with 1 nM 21.2 kbp DNA in 5 mM ATP for 30 min at 30°C, diluted 1000x, injected into the flow cell and imaged, no high-salt wash; all proteins on DNA.

On to “JF646-labeled Mcm2-7 (MCM) hexamer on DNA after incubation with ORC, Cdc6 and ATP, P29469 1-868; P24279 1-971; P30665 1-933; P29496 1-775; P53091 1-1017; P38132 1-845”, for which, in experiment [1], the percent of foci with 2 MCM after high-salt wash was 24% and the stoichiometry N stood at 2. For the same substance, the percent of MCM-only foci with two or more MCMs in experiment [2] was found to be 52%.

Source of the values: PMC7998030.
